Article PMC4749977, “Alp7/TACC-Alp14/TOG generates long-lived, fast-growing MTs by an unconventional mechanism” (Scientific Reports, 2016)

B1: S. pombe single isoform (α1β) tubulin (complex)
chain 1: MREVISVHVGQAGVQIGNACWELYCLEHGIGPDGFPTENSEVHKNNSYLNDGFGTFFSETGQGKFVPRSIYVDLEPNVIDQVRTGPYKDLFHPEQMVTGKEDASNNYARGHYTVGKEMIDSVLERIRRMADNCSGLQGFLVFHSFGGGTGSGLGALLLERLNMEYGKKSNLQFSVYPAPQVSTSVVEPYNSVLTTHATLDNSDCTFMVDNEACYDICRRNLDIERPTYENLNRLIAQVVSSITASLRFAGSLNVDLNEFQTNLVPYPRIHFPLVTYSPIVSAAKAFHESNSVQEITNQCFEPYNQMVKCDPRTGRYMATCLLYRGDVIPRDVQAAVTSIKSRRTIQFVDWCPTGFKIGICYEPPQHVPGSGIAKVNRAVCMLSNTTSIAEAWSRLDHKFDLMYSKRAFVHWYVGEGMEEGEFSEAREDLAALERDYEEVGQDSMDNEMYEADEEY
chain 2: MREIVHIQAGQCGNQVGAAFWSTIADEHGLDSAGIYHGTSEAQHERLNVYFNEAAGGKYVPRAVLVDLEPGTMDAVKSGKFGNLFRPDNIIYGQSGAGNIWAKGHYTEGAELADAVLDVVRREAEACDALQGFQLTHSLGGGTGSGMGTLLLSKIREEYPDRMMATFSVAPAPKSSDTVVEPYNATLSMHQLVENSDETFCIDNEALSSIFANTLKIKSPSYDDLNHLVSAVMAGVTTSFRFPGELNSDLRKLAVNMVPFPRLHFFMVGFAPLAAIGSSSFQAVSVPELTQQMFDANNMMVAADPRHGRYLTVAALFRGKVSMKEVDEQIRSVQTKNSAYFVEWIPDNVLKAVCSVPPKDLKMSATFIGNSTSIQEIFRRLGDQFSAMFRRKAFLHWYTGEGMDEMEFTEAESNMNDLVSEYQQYQEAGIDEGDEDYEIEEEKEPLEY
notes: alpha-1 tubulin (α1) of S. pombe, from strain mmsp174 (atb2 replaced by nda2+); beta tubulin (β) of S. pombe, from strain mmsp174; Stands both as the free GTP-tubulin heterodimer and as the growing plus end of the microtubule polymerised from it; which of the two is meant is told in the assay's format and the quantity; also called GTP-tubulin; T (tubulin dimer); source: purified from S. pombe …
B2: Alp14 (full length, S. pombe TOG-family microtubule polymerase) (enzyme, UniProt O94534 1-809, looked up)
chain: MSQDQEEDYSKLPLESRIVHKVWKVRLSAYEECSKSFSLSADGSDNCFELWNNQSELWKSVLTDSNVAAQEAGTAAFVAYCRFSDPSHLLKAREISVLSISEKCLTSPRAGTRENALEALMLLVEADSAAPVIESIIPSLSARSPKVIASNVAAIASLVEQFGAKVIPSKMIIPHISNLFGHADKNVRKEASRLTVNIYRWTGDPLKDLLFKDLRPVQTKELESLFAELPTEPPKQTRFLKSQQPTSEPNVETQVEEQPALENEESEPEPSDDQFDLVEEVDVLPNVDPNLETLMASSKWKDRKEALDKLLPVLSQPKIKDNDFFNLVAILTKSVSKDANIMVVINAAHCIQAMAKGLRSNFSKYASTSINALLERSKEKKANVIESLSSAMDAVLATSSLDDLAELIASFAGNKNPQIKSSCFSLFSRSFSNMTSLPSKFTVDTCAKACVPGVSDTFEPVRSAAAEALGVLMKLVGERAINQYLSPLDDIRKSKIRSFYETATVKAKAPTKKSKVKPSKQEESKVVVPSNAKAVKKSVVPSSPVVPSPRKATNKSLSMDVSKGNAFENGPLLPRPTTRPVSRGLSRGTSSSLQQKVKASTPLNSGALNETVQNLKNMELDDPAPQPAKHSRVDRYEHPKVLEDNDSTISSLESLKRENEELREQLKVEHEENISMQKQLSELKGELNTLRSARKASPIGDRKPAFMRRANTDFLELSTSPSFQRSVREFEPTRPKLYSSIDVNQRSPLASAKTNGNFTFHAELPRSPFSSRANNINPDWTKAIDLAAKLKQKITEMKQTDQRHQGLIH
notes: Alp14, S. pombe, full length; gene PCR-amplified from wild type genomic S. pombe DNA; also called Alp14/TOG
B3: Alp14, full length, with a C-terminal his or Avi tag (natural protein, S. pombe, UniProt O94534 1-809, looked up)
chain: B2 chain
notes: Alp14, TOG-family microtubule polymerase of S. pombe, full length; gene PCR-amplified from wild-type genomic S. pombe DNA; also called Alp14/TOG; full length Alp14
B4: Alp7, full length, with an N-terminal avi-tag (natural protein, S. pombe, UniProt Q9URY2 1-474, looked up)
chain: MSDIVSSSTDYSRRSPSSSSIGTNETDHTGFHEKRQGASSESLIPPAQRSSEESMPAPKLFPKLTSKPNPQLNLKDTLNKRVSDRLQALELNKSFDFSGTPRPMHPISHPLSQHKTPEFKHRKRNVESILTPKNPSLFSSSNAASQRGSLNTAPSNFAYSHSSSLQTSASSRPPVLSNGSFPRQTNTAPLNPPVHLKDNIRNSATPSTSQADIPTQYPINSTQKQQAKYEAEIEGYKAKLAGTYHEISVLQNTIVNVSGQLIAVNDQLQQLRSGKASTSPSTKDTNMRLVEGHNEETLALQRGKYTQEEVDKLIQERMEKVAEDLHAQYSAKHTQKINAFKANYARKYEATIQELQNQIGTAPNAPKISNSNWEEERRALKADNQTLQKQLEKAIQERQDMSDFLNNFKADMAKSDKLLMQQQSQQTGDLETLRLQLQALQEELRVEREERQQLIQMSEDLVIAMDQLNLEQKS
modifications: biotin on the AviTag (BirA ligase co-expressed to ensure biotinylation)
notes: Alp7 (Mia1p), TACC-family protein of S. pombe, full length; gene PCR-amplified from wild-type genomic S. pombe DNA; also called Alp7/TACC; Mia1p; source: Sf9 insect cells (baculovirus, BirA ligase co-expressed), purified on monomeric avidin agarose

Key:
[1] = molecular target: S. pombe dual-isoform (α1β + α2β) tubulin (S. pombe) (UniProt P04688); test: DIC video microscopy of microtubule growth; addition of GTP-tubulin to plus and minus ends of MTs nucleated by axoneme fragments; growth rate against tubulin concentration, linear regression, apparent rate constants; 100 mM K-PIPES, 1 mM MgSO4, 2 mM EGTA, 1 mM DTT pH 6.9, 1 mM GTP, no glycerol, 25 °C
[2] = molecular target: the molecule itself; test: microtubule growth rates (VE-DIC video microscopy) against tubulin concentration, fit of a bimolecular reaction; GTP-tubulin dimer adding to and leaving the microtubule plus end; single isoform S. pombe tubulin in PEM at 25 °C, without Alp14; apparent rate constants per microtubule end in dimers
[3] = molecular target: B1; test: microtubule growth rates (dark-field microscopy) with Alp14, fit of a kinetic model; Alp14-facilitated pathway T + M + E = TE + M = E + (M+1); Alp14 resident at the plus end of S. pombe α1β microtubules grown from GMPCPP seeds; 6 µM or 0.5 µM tubulin, nanomolar Alp14, PEM100, 25 °C; constants are parameters fitted to or constrained by the growth data, steady state assumed; conditions: both partners purified
[4] = molecular target: B1; test: as above; conditions: both partners purified; remark: listed apart in the source
[5] = molecular target: the molecule itself; test: glycerol gradient centrifugation; 5-40% glycerol gradient of purified Alp14, Alp7 and tubulin, alone or mixed; tubulin as GTP-tubulin where stated; fractions on SDS-PAGE with Coomassie staining

S. pombe dual-isoform (α1β + α2β) tubulin (from UniProt P04688 1-455; P04689 1-449; P05219 1-448) (complex)
Kd = koff/kon (critical concentration), minus end [1]: 1900 nM
Kd = koff/kon (critical concentration), plus end [1]: 2000 nM
koff, minus end [1]: 3.1 nm/s
koff, plus end [1]: 9.3 nm/s
kon, minus end (nm s^−1 μM^−1) [1]: 1.6
kon, plus end (nm s^−1 μM^−1) [1]: 4.7

B1
koff [2]: 6.6 s⁻¹
kon [2]: 5.5e+06 M⁻¹ s⁻¹

B2
Kd [3]: > 5 nM
Kd [4]: 6 nM
koff [4]: 1 to 15 s⁻¹
kon [4]: > 4e+07 M⁻¹ s⁻¹

B3
binding result [5]: binds

B4
binding result [5]: binds
